# Numbering of substitutions follows the chain as printed. Numbers in names are those of the source.
# T1: Rho-binding domain of Rhotekin (RBD)-GFP11
# T1 construct: also called RBD-11
# T1 chain: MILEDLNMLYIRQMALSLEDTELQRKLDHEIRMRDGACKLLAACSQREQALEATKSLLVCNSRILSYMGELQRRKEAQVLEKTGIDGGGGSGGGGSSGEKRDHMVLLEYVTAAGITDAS
# B1: GFP10-RhoB Q63L (constitutively active, dominant positive variant) (other)
# chain: MGDLPDDHYLSTQTILSKDLNIDGGGGSGGGGSSGAAIRKKLVVVGDGACGKTCLLIVFSKDEFPEVYVPTVFENYVADIEVDGKQVELALWDTAGLEDYDRLRPLSYPDTDVILMCFSVDSPDSLENIPEKWVPEVKHFCPNVPIILVANKKDLRSDEHVRTELARMKQEPVRTDDGRAMAVRIQAYDYLECSAKTKEGVREVFETATRAALQKRYGSQNGCINCCKVL
# notes: also called GFP10-Rho active mutant (Q63L)
# B2: GFP10-RhoB T19N (dominant negative variant) (other)
# chain: B1 chain with T53N, L97Q
# B3: Myc-VHH anti-GFP nanobody (VHH)
# VHH: QVQLVESGGALVQPGGSLRLSCAASGFPVNRYSMRWYRQAPGKEREWVAGMSSAGDRSSYEDSVKGRFTISRDDARNTVYLQMNSLKPEDTAVYYCNVNVGFEYWGQGTQVTVSS
# Columns and labels:
# [1] = target: Ras binding domain of c-Raf (RsBD)-GFP11; assay: tripartite split-GFP complementation in GFP1-9 cells, flow cytometry
# [2] = target: GFP10-RhoB (wild-type RhoB fused to GFP10); assay: cell-based or functional assay
# [3] = target: T1, Rho-binding domain of Rhotekin …; assay: tripartite split-GFP complementation in GFP1-9 cells, flow cytometry
# [4] = target: T1, Rho-binding domain of Rhotekin …; assay: tripartite split-GFP complementation in GFP1-9 cells, fluorescence microscopy
# [5] = target: reconstituted split-GFP (positive cells: 10-R-11, 10-Zipper-11, 10-zipper/zipper-11 with GFP1-9); assay: cell-based or functional assay
molecule,measurement,setting,value
"GFP10-H-Ras G12V (dominant positive, GTP-bound variant)",induction ratio of split-GFP fluorescence against GDP-bound (S17N) H-Ras,[1],3 fold
cell-permeant recombinant TAT-C3 exoenzyme (from UniProt P15879 41-251),inhibition of RhoB activation (split-GFP fluorescence),[2],> 10 µg/mL
B1,fold induction of split-GFP fluorescence against the inactive variant (T19N),[3],5 fold
B2,binding result,[4],no binding
B3,mean fluorescence intensity of the positive cells,[5],4 fold
